Data published in article PMC2603183.

Experiments:
chicken IgY (chicken) = test: SPR
[1] = target: FcY (CH3-CH4 domains of chicken IgY) (chicken); test: SEC
[2] = target: CHIR-AB1 extracellular domain (chicken); test: AUC
[3] = target: CHIR-AB1 extracellular domain (chicken); test: SPR

| Kd (chicken IgY (chicken)) | stoichiometry N [1] | stoichiometry N [2] | Kd [3] | microscopic KD, binding of the first CHIR-AB1 to IgY (bivalent analyte model) [3] | microscopic KD, binding of the second CHIR-AB1 to IgY (bivalent analyte model) [3] | Substance |
| --- | --- | --- | --- | --- | --- | --- |
| 800 nM | 1.83 | 2 |  |  |  | CHIR-AB1 extracellular domain (receptor) |
|  |  |  | 17 nM | 403 nM | 3900 nM | chicken IgY (natural protein) |
